From publication PMC4285326, “Structure and interactions of the Bacillus subtilis sporulation inhibitor of DNA replication, SirA, with domain I of DnaA” (Molecular Microbiology, 2014)

B1: SirA (sporulation inhibitor of DNA replication), Bacillus subtilis (natural protein, B. subtilis, UniProt P45707 1-148, looked up)
chain: MERHYYTYLIKEEFANHYFGRESVMFELFQDYHWTSLEKQQYEMTEKQIQYITQPIPILHMHQRLKMNLNKTDYRQLDYIYRIALPKAKGHATFMMKEHMIEIVASGDYEAETIFFEVLRKVSPCFLAMDFNSKRYGWLNPVKERNFV
modifications: 2-mercaptoethanol linked through a disulphide bond to Cys125 (seen in the crystal and by mass spectrometry)
notes: SirA, B. subtilis, amplified from genomic DNA, untagged; model has residues 2-141, Met1 and residues 142-148 disordered; Soluble only when coexpressed with DnaA^DI; A selenomethionine-substituted form was also crystallised for phasing; also called wild type SirA; native SirA; source: E. coli BL21 (DE3), coexpressed with His-DnaA^DI from pET-YSBLIC3C-DnaA^DISirA
B2: DnaA domain I (DnaA^DI), Bacillus subtilis, His-tag removed (domain or fragment, B. subtilis)
chain: GPAMENILDLWNQALAQIEKKLSKPSFETWMKSTKAHSLQGDTLTITAPNEFARDWLESRYLHLIADTIYELTGEELSIKFVIPQ
notes: DnaA, B. subtilis, domain I (N-terminal domain); residues 1-81 defined in the crystal, C-terminal Gln82 disordered; Calculated molecular mass 9.7 kDa; also called N-terminal domain of DnaA; not shown: His6, N-terminal, cleaved
B3: His-tagged DnaA domain I (His-DnaA^DI), Bacillus subtilis (domain or fragment, B. subtilis, UniProt P05648 1-82, looked up)
chain: MENILDLWNQALAQIEKKLSKPSFETWMKSTKAHSLQGDTLTITAPNEFARDWLESRYLHLIADTIYELTGEELSIKFVIPQ
notes: DnaA, B. subtilis, domain I (N-terminal domain); residues 1-81 defined in the crystal, C-terminal Gln82 disordered; 3C protease cleavable N-terminal His-tag, not cleaved in these experiments; also called His-tagged DnaA^DI; wild type DnaA^DI; source: E. coli BL21 (DE3), coexpressed with SirA from pET-YSBLIC3C-DnaA^DISirA; not shown: His6, N-terminal, kept

Assays:
[1] = biological target: T1, DnaA domain I (DnaA^DI), Bacillus subtilis, His-tag removed (Bacillus subtilis (strain 168), UniProt P05648); test: SEC-MALLS (1:1 heterodimer), Ni-NTA co-purification/pull-down, crystal structure; SirA soluble only when co-expressed with DnaA^DI; complex purified as such, not mixed from separate proteins
T1 chain: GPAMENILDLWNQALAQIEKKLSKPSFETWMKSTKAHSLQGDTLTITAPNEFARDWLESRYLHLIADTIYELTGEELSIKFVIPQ

[2] = biological target: B2; test: SEC-MALS; Superdex 75 HR 10/30, 50 mM Tris pH 8.5, 200 mM KCl, 0.5 ml min^-1; DnaA^DI at 1.0, 2.5 and 5.0 mg ml^-1; SirA-DnaA^DI at 0.5, 1.0 and 2.5 mg ml^-1; conditions: both partners purified
[3] = biological target: B1; test: crystal structure; native crystals, space group P2_1, two complexes per asymmetric unit; 100 mM HEPES pH 7.5, 200 mM NH4 acetate, 25% PEG 3350, 1% DMF; SAD phasing from SeMet crystals, then molecular replacement; conditions: both partners purified
[4] = biological target: B1; test: pull-down; soluble lysate of E. coli coexpressing His-DnaA^DI and untagged SirA loaded onto a HisTrap FF crude Ni-affinity column in 50 mM Tris pH 8.5, 200 mM KCl, 20 mM imidazole, 10 mM BME; washed; eluted with 500 mM imidazole; eluates normalised to DnaA^DI, SDS-PAGE with Coomassie staining, bands quantified with ImageJ; conditions: partners not purified
[5] = biological target: B3; test: as above; conditions: partners not purified

With B1 the binding result [1] was “binds” and the “stoichiometry N” value [2] was 1.

B2: binds [3].

B3: binds [4].

B4: SirA F14A, Bacillus subtilis (natural protein, B. subtilis, UniProt P45707 1-148, looked up)
chain: MERHYYTYLIKEEAANHYFGRESVMFELFQDYHWTSLEKQQYEMTEKQIQYITQPIPILHMHQRLKMNLNKTDYRQLDYIYRIALPKAKGHATFMMKEHMIEIVASGDYEAETIFFEVLRKVSPCFLAMDFNSKRYGWLNPVKERNFV
notes: SirA, B. subtilis, untagged, with Phe14Ala; also called Phe14Ala; source: E. coli BL21, coexpressed with His-DnaA^DI, in soluble lysate
B4 was tested, and the “fold lower recovery relative to wild type SirA” value [5] was 1.5 fold.

B5: SirA Q48A, Bacillus subtilis (natural protein, B. subtilis, UniProt P45707 1-148, looked up)
chain: MERHYYTYLIKEEFANHYFGRESVMFELFQDYHWTSLEKQQYEMTEKAIQYITQPIPILHMHQRLKMNLNKTDYRQLDYIYRIALPKAKGHATFMMKEHMIEIVASGDYEAETIFFEVLRKVSPCFLAMDFNSKRYGWLNPVKERNFV
notes: SirA, B. subtilis, untagged, with Gln48Ala; also called Gln48Ala; source: E. coli BL21, coexpressed with His-DnaA^DI, in soluble lysate
B5 was tested, and the “fold lower recovery relative to wild type SirA” value [5] was 1.5 fold.

B6: SirA Y18A, Bacillus subtilis (natural protein, B. subtilis, UniProt P45707 1-148, looked up)
chain: MERHYYTYLIKEEFANHAFGRESVMFELFQDYHWTSLEKQQYEMTEKQIQYITQPIPILHMHQRLKMNLNKTDYRQLDYIYRIALPKAKGHATFMMKEHMIEIVASGDYEAETIFFEVLRKVSPCFLAMDFNSKRYGWLNPVKERNFV
notes: SirA, B. subtilis, untagged, with Tyr18Ala; also called Tyr18Ala; source: E. coli BL21, coexpressed with His-DnaA^DI, in soluble lysate
In the case of B6, the “fold lower recovery relative to wild type SirA” value [5] is reported as 2.5 fold.
